Assay: soluble on expression in E. coli; label from the status in PepcDB or PDB records

MTQVLVRNGIQAVGDGLTSLIIVGKKSVLKNVTFEGKFKEVAQKFVTDGDSWNSMISRIPASGRHPLHYELAHLITVPDASSRGNTPTNAHSIYKELKPINYPEDTKNVHFVLFAEYPDVLSHVAAIARTFCKFSMKTSGIRELNVNIDVVCDKLTNEDAVFLTDLSESVRETARLIDTPANILTTDALVDEAVKVGNATGSKITVIRGEELLKAGFGGIYHVGKAGPTPPAFVVLSHEVPGSTEHIALVGKGVVYDTGGLQIKTKTGMPNMKRDMGGAAGMLEAYSALVKHGFSQTLHACLCIVENNVSPIANKPDDIIKMLSGKTVEINNTDAEGRLILADGVFYAKETLKATTIFDMATLTGAQAWLSGRLHGAAMTNDEQLENEIIKAGKASGDLVAPMLFAPDLFFGDLKSSIADMKNSNLGKMDGPPSAVAGLFIGAHIGFGEGLRWLHLDIAAPAEVGDRGTGYGPALFSTLLGKYTSVPMLKQ
soluble on expression in E. coli: soluble

MGSDKIHHHHHHMSEKTLYQKLQNIHKKVPYIQKSQQASQYSYAGSSDVLGTIHGLMDEEKLILIPQITNKNTETSQNRKGSTVIFTELMMTMTWVNSDNPDEKLECQWYAQGIDTAGEKGVGKALTYGEKYFLLKFFNVATDDLDPDAFQENVKAQKAPELINDEQKKTLKELFNSMASVTKTPIEKVSKAYLKKVNSDSIEKLQEDTAIGLIELVTNQLNKQTEKAGK
soluble on expression in E. coli: not soluble

SENLTMNIDSTKTIQGTILPVLDFKTEKENVFTFKNTANLNLLIKHGQVINLINKLEFSTYGNKVTVSGGYVHTEYRYLLHHVFEVYPYVESQWAESRGMKYKVSTGLQSRYR
soluble on expression in E. coli: not soluble

MAAHELKEALETLKETGVRITPQRHAILEYLVNSMAHPTADDIYKALEGKFPNMSVATVYNNLRVFRESGLVKELTYGDASSRFDFVTSDHYHAICENCGKIVDFHYPGLDEVEQLAAHVTGFKVSHHRLEIYGVCQECSKKENH
soluble on expression in E. coli: soluble

MINPIASLSPLDGRYAQSVEALRPIFSEYGLMKARVKVELNWLKALAAEPKIAEVPPFSAETLAEIDTVIENFSLEDAAAVKAIEATTNHDVKAIEYWLKKRFAEVPEVAAVSEFIHFACTSEDINNLSHALMLQEAREAVLLPKLAEIIEKLTAMAHDLAAVPMMSRTHGQPATPTTLGKETANVVYRLQRQFKNLQAQEFLGKINGAVGNYNAHMVAYPDVDWETHCRNFVEISLGLTFNPYTIQIEPHDYMAEFFQTLSRINTILIDFNRDVWGYISLGYFKQKVKAGEVGSSTMPHKVNPIDFENSEGNLGMANAVLGFLSEKLPISRWQRDLTDSTVLRNMGVGVGYAVLGFAAHLRGLNKLEPNPAALAADLDATWELLAEPIQTVMRRYGVANPYEKLKDLTRGKGGITPEVLKGFIGLLEIPAEAKAKLLELTPALYVGKAEALAKRI
soluble on expression in E. coli: not soluble

MDVVFETVNCLESNRKIIIVKLPDGSSEKFFFNVTKRAFEKIVCVDGKPVQMDSDLTPHHSVWCPHIHKNIIFAYNHLLRMNLQYLFDSETLSFHETKCDQCHLDPKKSTNVKQILLVAASPKIRRPIVLTMSQEGRVLKMCYDEIEKNYVDMSPTEIKALTQLKDVTAAMEDLTLDSKVMESDLIPLVKEKSVFLPHDSILIAKNKKTNKIGQYVFDRYHHQFLEVVMSDIEIKQEMPNIAKLINVTMSTKTEQAISIRCTPGIGELKKFHYNRETASFDPMEEKAIVESDEEIQSFIEEIEKTQDIVCKKIKAILWFYHNVKPFLAKKLENPVKKNNDYKRYVFKPVEPEEKVDDEMDSVSEPESDSLSMSSSSRSSSRSSLSSDDSFEMVVDIDFVE
soluble on expression in E. coli: not soluble

AQVEPTVAYPHIPSNGRVAGSDRIRVTHAYVGSCTNGRITDLRDVARILKGRKVAQDVQMIVVPATQAIWKQAAQEGLLEIFVDAGASVSYPSCGACLGMHSGVLGPDDICISSSNRNFVGRMGDPSAQIYLASPATVAASAVEGFIADPRRYDAEGND
soluble on expression in E. coli: not soluble

MPETEEISKGLEDVNIKWTRLTTIDGNKGILRYGGYSVEDIIASGAQDEEIQYLFLYGNLPTEQELRKYKETVQKGYKIPDFVINAIRQLPRESDAVAMQMAAVAAMAASETKFKWNKDTDRDVAAEMIGRMSAITVNVYRHIMNMPAELPKPSDSYAESFLNAAFGRKATKEEIDAMNTALILYTDHEVPASTTAGLVAVSTLSDMYSGITAALAALKGPLHGGAAEAAIAQFDEIKDPAMVEKWFNDNIINGKKRLMGFGHRVYKTYDPRAKIFKGIAEKLSSKKPEVHKVYEIATKLEDFGIKAFGSKGIYPNTDYFSGIVYMSIGFPLRNNIYTALFALSRVTGWQAHFIEYVEEQQRLIRPRAVYVGPAERKYVPIAERK
soluble on expression in E. coli: soluble

MANPFSKAWKYLMALFDSKIEENADPKVQIQQAIEDAQRQHQELSQQAAAVIGNQRQLEMQLNRRLAEIEKLQGNTRQAIQLADKARAEGNIQKATEYENAAEAFAAQLVTAEQGVEDTKQLHDQALQQADAAKKAVERNAMVLQQKVAERTKLLSQLEQAKMQEKVAESIQSMNSISNRDTPNLDQVREKIERRYANALGTAELAQNSVQGRMAEVEQAGIQLAGHSRLEQIRAEMSGGQLGAGNSATQQSIESAQQATPSAADDAVARKMRELRGEA
soluble on expression in E. coli: not soluble

MAKILVLYYSMYGHIETMAHAVAEGAKKVDGAEVIIKRVPETMPPEIFAKAGGKTQNAPVATPQELADYDAIIFGTPTRFGNMSGQMRTFLDQTGGLWASGSLYGKLGSVFSSTGTGGGQEQTITSTWTTLAHHGMVIVPIGYAAQELFDVSQVRGGTPYGATTIAGGDGSRQPSQEELSIARYQGEYVAGLAVKLNG
soluble on expression in E. coli: not soluble

GPGSMNGEFPVLVSHHKLLMLPTVGVARYDSGNAGIIGEQTHNFHVIPEIELIVVRVHGKMTEYQHNHLLLTSVLQLHAKPLHLFLTNASINIQHIFAMTITMLHAIRFCPSGSTGPCCKHRQIRPIEHNEKEHAALTYLKTIVTGWHPQQTINMIMVLFAQPQEIVVPQ
soluble on expression in E. coli: not soluble

AHHHHHHGSTKRVKVITDPEVIKVMLEDTRRKILQLLRNREMTISQLSEILGKMPQTIYHHIEKLKEAGLVEVKRTEMKGNLVEKYYGRTADVFYINLYMGDEELRYLARSRLKTKLDIFKKLGYKFDEEELLNVMDRILEKEHEVKVEISKEIENVEDSLKEFSNEDIIHAIEWLAMARLAQDEEYIELVKKLGQILKR
soluble on expression in E. coli: soluble

MGSDKIHHHHHHMKVKIGDLTKIKTGKLDANVSSEDGKYPFFTCSKEPLKISTYSYDCECVLVAGNGDLNVKYYNGKFDAYQRTYIIEANGSGKLYMPYLYYFMEDYIDELRKQAIGGVIKYIKLANLTDALIELPSVDEQKSIVEILKKVKGILDKRNDEIRELDNLIKARFVEMFGDPRSNPFGFEKKRLKDTCKVITGNTPSRAIEEYYGDYIEWIKTDNIVSGILNPTQATESLSEKGMNVGRTVEKDSILMACIAGSIASIGRVCITDRTVAFNQQINAVVPEQYNILFLYVLFQMSKDYLVEDINMALKGILSKSKLEEKEFIIPPMDLQEQFSDFVKQVDKSKFDTMTFAPIYAIINLYLHTYFYQGRR
soluble on expression in E. coli: not soluble

MGGSHHHHHHGMASTQLFLWEYGDLHLFGPNQRPAPCYDPCEAVLVESIPEGLDFPNASTGNPSTSQAWLGLLAGAHSSLDIASFYWTLTNNDTHTQEPSAQQGEEVLRQLQTLAPKGVNVRIAVSKPSGPQPQADLQALLQSGAQVRMVDMQKLTHGVLHTKFWVVDQTHFYLGSANMDWRSLTQVKELGVVMYNCSCLARDLTKIFEAYWFLGQAGSSIPSTWPRFYDTRYNQETPMEICLNGTPALAYLASAPPPLCPSGRTPDLKALLNVVDNARSFIYVAVMNYLPTLEFSHPHRFWPAIDDGLRRATYERGVKVRLLISCWGHSEPSMRAFLLSLAALRDNHTHSDIQVKLFVVPADEAQARIPYARVNHNKYMVTERATYIGTSNWSGNYFTETAGTSLLVTQNGRGGLRSQLEAIFLRDWDSPYIHDLDTSADSVGNACRLL
soluble on expression in E. coli: not soluble

MAAPPSPGRTADQADQVCTFLFKKPGRKGAAGLRKRPACDPEHGESSSSGDEGDTVAQPPRVAPRPRGLHSWQKAAHGDRRGEEAAPESLDVVYRSTRSAKPVGPEDMGATADFEQDTEKEHHTPTILKCSQRVQEALRGREHDHIYRGIHSYLRYLKPKDTSMGNSSSGMARKGPIRAPGHLRATVRWDYQPDICKDYKETGFCGFGDSCKFLHDRSDYKLGWEIERELEEGRYCICEDENHEVGSEEEEIPFRCFICRQAFQNPVVTKCRHYFCESCALEHFRATPRCYICDQPTGGIFNPAKELMAKLQKLQAAEGKKR
soluble on expression in E. coli: soluble

MGSDKIHHHHHHMRRLNRKNNEALKKLNDRQRKVLYCIVREYIENKKPVSSQRVLEVSNIEFSSATIRNDMKKLEYLGYIYQPHTSAGRIPTDKGLRFYYEEMLKISKETSEADLAVETFKSMPLADPEKVLFLAGNLLARLTEGYVLIERPNTRDLKILRVMLIPVSEDYLIFSILTEFGVSKVTPIKTQERLNWEEIERQLNFLLRGRTVGEVLMGKIESLKGSGFLRLIESLIGETVERYLDAGLENLLKDETLTLEDIRNLLEEVKDQKFLESLVGEGITVRIGREIGRKKLEKFAVFSGKYFKGESPIGSVYLFTSKVTKYDRNHRVFEYILNRLSEYFTSTSRR
soluble on expression in E. coli: not soluble

MCEISVVMPVYNAEMHIKDAIESVLEQSFVDFEFILIDDGSTDHTSSIIQSYNDKRVRLIQNSHNFIESLNLGIENSLGKYMARMDGDDIMHIDRLKIQYAIMQEYPDVTVCGTWMNSIGTYSQTNGLLSTLSGWVEQPLLKFTKGNFLFHPTTMIRMDFLKKNALKYENYPYAEDFKFWVEIAKSGGRFYIDSQPLLYYRISDSQVSSQKSSEQRATTESIINEVLEYLMELNKNEYPELAAAYGDLCKLYEKQLLTKCEVLTLFQTLFSKNEKKLNLLEHHHHHH
soluble on expression in E. coli: soluble

IGADVDLATLSGLDGAALHFEQTIFILDNGTGQPTGGEWQGAVGSYFGGAPLHNDIASNQLSLLTYKQKWLDGQLDLHVGRTNGRRYFYIYNCETGVTCNDPILDASSGMLPPPFGAWGGYLKYQVNPRFYVHAGAFESNPVDYLKKRKGLDFSTDDASGTSFLVGIGSKPGDNTTQYELNA
soluble on expression in E. coli: not soluble

GPGSMSLIFFCIIPHPFTRTKCSKVSIIMQMLAPGAFFNALKVRGVTHFFGVPDPILKYFCAFVASHTTPKEHIITANEGNAVAMAAGYHLATGGLPLVYMKNSGLGDALNPLISLTHAEACSIPMFIVVGWRGAPDAGNELPCAAEGRLTEGILRAAEVPYIILSSACGNGEQSMETALDMALKHVHNSRTPYAFLVPPNFFEECAYEGVGEGIAELPMTRREAVEQALRQIDRGDIVVGAASFLAREIFEVQECAGMRHGPQFFPVGSMGHCSSVAAGIALAKPERQVFCFDGDGAFLMHMGSSATIGGVAAIHLIGTGETSLMRNYKHVVFNNGSHDSAGGQPTVSFDVSLTQVASACGFRTVREEPVMDLGETVRALQELKKAEGPAFLEVFVRRGGHSNPQCELPSLDESKQALTNCLRG
soluble on expression in E. coli: not soluble

MAVQKNVIKGILAGTFALMLSGCVTVPDAIKGSSPTPQQDLVRVMSAPQLYVGQEARFGGKVVAVQNQQGKTRLEIATVPLDSGARPTLGEPSRGRIYADVNGFLDPVDFRGQLVTVVGPITGAVDGKIGNTPYKFMVMQATGYKRWHLTQQVIMPPQPIDPWFYGGRGWPYGHGGWGWYNPGPARVQTVVTE
soluble on expression in E. coli: not soluble

MGSDKIHHHHHHMPRHDDPRYFPISPLLIVPQALGSFSVFIRKDERLILYAKAGETFTERHSRRLHENGTSEVYVRVDQRQNFGLYLERHLAHILEDDRLPVEHRASAFHCATTELLRDTFGTRLPAPVDGILFERLQSLVTMSLRFLCEQGTLKALGQLLDCDFSAYSHSVNVYALTVPLLARLGYAQTDLVRTGLGVLLHDIGLARLPRAITRHRHSLTKHEEHIYRTHPTLGVGLVAQVPLSQEALHCIMLHHERLDGSGFPAGVKDENIPTAVRALAIADTYDLLTTAPGEARLTPFMALQLMRSEHHSTLDLYLLREFITMLSDAEMAGVWPDTLR
soluble on expression in E. coli: not soluble

From the DeepSol protein solubility set
